Assays:
HLA-B*08:01 = HLA-B*08:01 (Homo sapiens, UniProt P01889, A93T/A95T/D138N/E176V/E187T/K202T/Q94N/R180D/S35A/V36M/Y33D/Y91F); assay: In vitro binding of neoantigens to class I MHC (UV peptide exchange, HLA class I ELISA)
Method: (§1) The 9 mer peptides identified by bioinformatics analysis were analyzed for their binding propensities to 6 common HLA class I alleles (HLA-A*01:01, A*02:01, A*03:01, A*24:02, B*07:02, B*08:01). The principle of the method is briefly described below and consists of two parts, one involving exchange of peptide with a positive control induced by Ultraviolet (UV) radiation, and the second is an enzyme immunoassay to detect stable HLA-peptide and empty HLA complexes.
(§2) HLA-bound peptides are critical for the stability of the HLA complex. A conditional HLA class I complex was stabilized by an UV-labile peptide utilizing a different peptide (Pos) for each HLA (Pos: HLA-A*01:01: […](SEQ ID NO: 409), HLA-A*02:01: […] (SEQ ID NO: 410), HLA-A*03:01: […] (SEQ ID NO: 411), HLA-A*24:02: […] (SEQ ID NO: 412), HLA-B*07:02: […] (SEQ ID NO: 413), HLA-B*08:01: […] (SEQ ID NO: 414), which could be cleaved by UV irradiation when bound to the HLA molecule. Upon cleavage, the resulting peptide fragments dissociated from the HLA class I complex since their length was insufficient to bind stably to HLA. Under the conditions in which peptide cleavage was performed (neutral pH, on melting ice), the peptide-free HLA complex remained stable.
(§3) The exchange efficiency between the peptide of interest and Pos was analyzed using an HLA class I ELISA. The combined technologies allowed the identification of ligands for an HLA molecule of interest which are potentially immunogenic.
(§4) Exchange control peptide Pos was a high affinity binder to the relevant HLA class I allele while exchange control peptide Neg was a non-binder. The UV control represented UV-irradiation of conditional HLA class I complex in the absence of a rescue peptide.
(§5) The HLA class I ELISA is an enzyme immunoassay based on the detection of beta2-microglobulin (B2M) of (peptide-stabilized) HLA class I complexes. To this end streptavidin was bound onto polystyrene microtiter wells. After washing and blocking, HLA complex present in exchange reaction mixtures or ELISA controls was captured by the streptavidin on the microtiter plate via its biotinylated heavy chain. Non-bound material was removed by washing. Subsequently, horseradish peroxidase (HRP)-conjugated antibody to human B2M was added. The HRP-conjugated antibody binds only to an intact HLA complex present in the microtiter well because unsuccessful peptide exchange results in disintegration of the original UV-sensitive HLA complex upon UV illumination. In the latter case B2M was removed during the washing step. After removal of non-bound HRP conjugate by washing, a substrate solution was added to the wells. A coloured product formed in proportion to the amount of intact HLA complex present in the samples. After the reaction was terminated by the addition of a stop solution, absorbance was measured in a microtiter plate reader. The absorbance was normalized to the absorbance of an exchange control peptide (represents 100%). Suboptimal HLA binding of peptides with a moderate to low affinity for HLA class I molecules can also be detected by this ELISA technique (Rodenko, B et al. (2006) Nature Protocols 1: 1120-32).
(§6) Peptides that had 10% or greater exchange efficiency in one of the 6 HLA alleles were considered for further immunogenicity testing and analysis.
(§7) Binding of select neoepitopes to HLA-A*01:01, HLA-A*02:01, HLA-A*03:01, HLAA*24:02, HLAAB*07:02 and HLA-B*08:01 was evaluated using the assay described in Example 1. […] As a criterion for further evaluation, peptides with an exchange rate of at least 10% with the corresponding Pos peptide for at least one of the 6 HLA alleles that we considered for further evaluation. The exchange rates with the allele specific Pos peptides, of the 24 neoantigens so identified are summarized below in Table 17. Higher percentages correspond to stronger binding to the HLA allele. […]

[1] = tested on: CD8+ T cells in PBMCs from human patients with metastatic castrate-resistant prostate cancer; assay: Patient PBMC restimulation assay (in vitro immunogenicity, TNFα/IFNγ intracellular flow cytometry); format: cell-based; settings: 9-mer peptide; for Maximum frequency of TNFα^+IFNγ^+CD8^+ T cells (Percent): greatest frequency among all tested PBMC donors; for Immunogenic: patient PBMC restimulation
Method: PBMCs from human patients with metastatic castrate-resistant prostate cancer were thawed using media (RPMI 1640 supplemented with Glutamax, 10% HI FBS, and 1× Sodium Pyruvate). Cells were counted and plated in a 96 well round bottom microplate at a concentration of 250,000 viable cells per well. Lyophilized peptides were solubilized in 100% DMSO and diluted in media to 10 μg/mL. Neoantigen peptides were added in equal volume to PBMCs for a final concentration of 5 μg/mL. CEF Peptide Pool “Plus” (Cellular Technologies, Ltd.) was utilized as a positive control and DMSO at the same final concentration as the experimental peptides was utilized as a negative control. Human IL-15 (Peprotech) was added to all wells at final concentration of 10 ng/mL.
Plates were incubated at 37° C. (5% CO2) for a total of 13 days. Media was refreshed every 2 days with IL-15 (10 ng/mL final concentration) and IL-2 (R&D systems, 10 IU/mL final concentration). On day 12, PBMCs were re-stimulated with identical experimental peptides or controls, at same concentration as peptide stimulation on Day 1. After 1-hour incubation, protein Inhibitor Cocktail (eBioscience) was added to every well and plate was incubated overnight.
On day 13, cells were stained for intracellular flow cytometry analysis. The cells were washed with PBS and stained with Live/Dead Fixable Aqua Dead Cell stain (Thermo-Fisher). Following the live/dead stain, cells were blocked using Biotin-Free Fc Receptor Blocker (Accurate Chemical & Scientific Corp). Extracellular cellular flow panel ([…] per well in 50 μL) consisted of CD3 PerCP-Cy5.5 (Biolegend), CD4 BV421 (Biolegend), and CD8 APC-Cy7 (Biolegend). After extracellular staining, cells were fixed using Foxp3/fTranscription Factor Staining Buffer Set (eBioscience) and stained for intracellular proteins (1:50 dilution) using TNFα FITC (R&D Systems) and IFNγ BV785 (Biolegend). Cells were washed and resuspended in stain buffer and analyzed using a BD Celesta flow cytometer.
Flow cytometry cell staining analysis was completed using FlowJo v10. Cells were gated on live, singlet, CD3+ cells. The CD8+ T cells were analyzed for TNFα/IFNγ expression and the frequency of double positive TNFα/IFNγ CD8+ T cells was recorded. Responses were assessed to be positive when the frequency of double positive TNFα/IFNγ CD8+ T cells due to stimulation with an experimental peptide was increased greater than or equal to 2-fold over the DMSO only negative control for that patient. Peptides were analyzed in 1 to 7 patient samples.
The 9 mer fragments shown in Table 13 were assessed for their ability to activate T cells using the Patient PBMC restimulation assay described in Example 1 using TNFα and IFNγ production by CD8^+ T cells as a readout. Self-antigens shown in Table 15 were also used in the assays. […] PBMCs from ten patients were evaluated.

HLA-A*01:01 = HLA-A*01:01 (Homo sapiens, UniProt P04439, A114D/A174V/A182V/D101N/D185E/E176A/E190D/L180R/Q94H/R68K/S129P/T187R/V100A/V91M/W191G); assay: In vitro binding of neoantigens to class I MHC (UV peptide exchange, HLA class I ELISA); settings: 100% = same binding as positive control peptide
Method: as §1, §2, §3, §4, §5, §6, §7

HLA-A*24:02 = HLA-A*24:02 (Homo sapiens, UniProt P04439, D101N/D140Y/D185E/E176V/E190D/F33S/G103R/G107R/I119L/I121M/I306V/K335N/L105A/L180Q/L300P/N151K/N90K/Q86E/Q94H/R106L/R138H/R89G/T104I/T345S/V100E/W191G/Y123F); assay: as above; settings: 100% = same binding as positive control peptide
Method: as §1, §2, §3, §4, §5, §6, §7

HLA-B*07:02 = HLA-B*07:02 (Homo sapiens, UniProt P01889); assay: as above; settings: 100% = same binding as positive control peptide
Method: as §1, §2, §3, §4, §5, §6, §7

HLA-A*03:01 = HLA-A*03:01 (Homo sapiens, UniProt P04439); assay: as above; settings: 100% = same binding as positive control peptide
Method: as §1, §2, §3, §4, §5, §6
Binding of select neoepitopes to HLA-A*01:01, HLA-A*02:01, HLA-A*03:01, HLAA*24:02, HLAAB*07:02 and HLA-B*08:01 was evaluated using the assay described in Example 1. […] As a criterion for further evaluation, peptides with an exchange rate of at least 10% with the corresponding Pos peptide for at least one of the 6 HLA alleles that we considered for further evaluation. The exchange rates with the allele specific Pos peptides, of the 24 neoantigens so identified are summarized below in Table 17. Higher percentages correspond to stronger binding to the HLA allele.

HLA-A*02:01 = HLA-A*02:01 (Homo sapiens, UniProt P04439, D140Y/D185E/D98H/E176V/E277Q/G131W/G231S/I119V/I121R/I166T/I218V/L300P/L318F/N151K/N90K/P208A/P217A/Q86G/Q94H/R138H/R169H/T345S); assay: as above; settings: 100% = same binding as positive control peptide
Method: as §1, §2, §3, §4, §5, §6, §7

| Substance | Exch I (%) (HLA-B*08:01; Binding to HLA-B*08:01, UV peptide exchange, replicate I, Pos = 100) | Exch II (%) (HLA-B*08:01; Binding to HLA-B*08:01, UV peptide exchange, replicate II, Pos = 100) | Average % (HLA-B*08:01; Binding to HLA-B*08:01, average of Exch I and Exch II) | Maximum frequency of TNFα^+IFNγ^+CD8^+ T cells (Percent) [1] | Immunogenic [1] | Exchange rate with allele specific Pos peptide, HLA-A*01:01 (HLA-A*01:01) | Exchange rate with allele specific Pos peptide, HLA-A*24:02 (HLA-A*24:02) | Exchange rate with allele specific Pos peptide, HLA-B*07:02 (HLA-B*07:02) | Exchange rate with allele specific Pos peptide, HLA-B*08:01 (HLA-B*08:01; 100% = same binding as positive control peptide) | Exchange rate with allele specific Pos peptide, HLA-A*03:01 (HLA-A*03:01) | Exchange rate with allele specific Pos peptide, HLA-A*02:01 (HLA-A*02:01) |
| --- | --- | --- | --- | --- | --- | --- | --- | --- | --- | --- | --- |
| 8 (QLIAMDSAI; listed as Homo sapiens) [Peptide 8] | 8.0% | 7.8% | 7.9% | – | – | – | – | – | – | – | – |
| P17 (GVPGDSTRRAVRRMNTF; listed as Homo sapiens) [Peptide P17] | – | – | – | 0.130% | Yes | 4.9% | 0.1% | 38.7% | 9% | 3.8% | – |
| P48 (VQPIARELYQFTFDLLI; listed as Homo sapiens) [Peptide P48] | – | – | – | 0.220% | Yes | 4.3% | 0.1% | 12.8% | – | 4.4% | 99.3% |
| P76 (YCMAAPMGL) [Peptide P76] | – | – | – | 0.170% | Yes | 0.1% | −0.5% | 91.5% | – | 6% | 85.9% |

Source: patent US12295997B2, “Prostate neoantigens and their uses” (Janssen Biotech, Inc., priority 2020, dated 2025)
